The text below walks through data of patent US20080181886A1, “Polypeptides That Bind Baff And/Or April” (Genentech, Inc., priority 2004, published 2008).

Assay [1] deals with human BAFF (UniProt Q9Y275). As to the kind of experiment: competitive SPR; elute 2; interaction observed, curve not fitted adequately.
Assay [2] addresses TRX-APRIL (mouse) (UniProt Q9D777). Nature of the assay: competitive SPR; elute 1.
Assay [3] has the same target. As to the kind of experiment: competitive SPR; elute 2.
Assay [4] addresses human BAFF (UniProt Q9Y275). Nature of the assay: competitive SPR; elute 1; interaction observed, curve not fitted adequately.
Assay [5] addresses human BAFF (UniProt Q9Y275). Nature of the assay: competitive SPR; elute 1.
Assay [6] deals with human BAFF (UniProt Q9Y275). As to the kind of experiment: competitive SPR; elute 2.

pIC50: −log10 of the molar value.

Chain of TACI_d1 (first CRD of TACI, residues 32-67) (O14836 32-67): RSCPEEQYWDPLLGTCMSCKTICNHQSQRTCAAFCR
Chain of TRX-APRIL (mouse) (Q9D777 104-241): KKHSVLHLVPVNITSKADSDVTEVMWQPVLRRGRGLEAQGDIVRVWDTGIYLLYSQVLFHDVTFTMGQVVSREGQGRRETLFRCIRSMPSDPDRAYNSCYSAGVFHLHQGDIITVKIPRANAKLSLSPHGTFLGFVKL
Chain of human BAFF (Q9Y275 82-285): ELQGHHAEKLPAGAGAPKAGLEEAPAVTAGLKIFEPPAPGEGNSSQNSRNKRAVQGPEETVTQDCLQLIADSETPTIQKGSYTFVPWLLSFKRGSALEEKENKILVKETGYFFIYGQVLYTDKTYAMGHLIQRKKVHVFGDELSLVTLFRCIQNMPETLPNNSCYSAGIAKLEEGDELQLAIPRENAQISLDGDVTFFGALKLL

In general, pIC50 refers to the IC50 on a negative log10 scale, so that one unit is a factor of ten. A low value points to a high IC50. Regarding “TACI_d1 (first CRD of TACI, residues 32-67)”, the pIC50 with human BAFF [1] was below 7.00; in the assay with TRX-APRIL (mouse) [2] it was 5.52; with TRX-APRIL (mouse) [3], 6.00; with human BAFF [4], below 7.00.
“hTACI CRD1 LS (human TACI CRD1 R32-R67 with NHQSQRT replaced by GQHPKQ of CRD2)”: the pIC50 with human BAFF [5] was 8.22; in the assay with TRX-APRIL (mouse) [2], 7.92; in the assay with human BAFF [6], 7.64; with TRX-APRIL (mouse) [3], 6.89.
